Data as given in article PMC9896449.

Legend:
[1] = target: BiShAb0201 (ShAb02 VNAR - (GGGGS)5 - ShAb01 VNAR - human IgG1 Fc) (nurse shark (Ginglymostoma cirratum)); test: BLI
[2] = target: ShAb01H02K (knob-in-hole heterodimer of ShAb01-Fc and ShAb02-Fc) (nurse shark (Ginglymostoma cirratum)); test: BLI

Row | Substance | Kd [1] [nM] | koff [1] [s⁻¹] | kon [1] [M⁻¹ s⁻¹] | Kd [2] [nM] | koff [2] [s⁻¹] | kon [2] [M⁻¹ s⁻¹]
1 | SARS-CoV-2 RBD B.1.1.529, Omicron BA.1 (from UniProt P0DTC2 331-527) (domain or fragment) | 15.1 | 0.00154 | 102000 | 24.5 | 0.00175 | 71300
2 | SARS-CoV-2 RBD B.1.1.529.2, Omicron BA.2 (from UniProt P0DTC2 331-527) (domain or fragment) | 33.2 | 0.000749 | 22600 | 24.1 | 0.00186 | 77000
3 | SARS-CoV-2 RBD B.1.1.529.2.12.1, Omicron BA.2.12.1 (from UniProt P0DTC2 331-527) (domain or fragment) | 46.9 | 0.000922 | 19700 | 17.4 | 0.00171 | 98500
4 | SARS-CoV-2 RBD Omicron BA.4/5 (from UniProt P0DTC2 331-527) (domain or fragment) | 14.9 | 0.000767 | 51500 | 5.6 | 0.000692 | 123000
